The source of these data is US20130136748A1 (Ablynx, published 2013).

Test [1] deals with T1, hHER3 full length (human, UniProt P21860 20-1342). Kind of test: cell-based or functional assay.
Test [2] addresses T2, human HER3-Fc (R&D Systems, 348-RB) (human, UniProt P21860 20-643).
T2 construct: Bought; also called hHER3-Fc; Fc-HER3; Fc part of the bought chimera not given, not described
As to the kind of experiment: HRG competition alphascreen.

In test [3] the target is T2, human HER3-Fc (R&D Systems, 348-RB). Kind of test: HRG competition alphascreen. This is another data set of the same source.
Test [4] concerns the target T3, hHER3 ECD (human HER3 extracellular domain) (human, UniProt P21860 20-643).
T3 construct: also called recombinant HER3-ECD
As to the kind of experiment: SPR off rate on HER3-ECD.

Test [5] concerns the target T1, hHER3 full length. As to the kind of experiment: FACS, 400 nM, competitor 04F10-biotin.
Test [6] deals with T1, hHER3 full length. Kind of test: FACS, 400 nM, competitor 23F05-biotin.
In test [7] the target is T2, human HER3-Fc (R&D Systems, 348-RB). Kind of test: SPR, HER3-Fc captured by anti-Fc.
Test [8] addresses T4, human HER4 (human, UniProt Q15303 26-1308). As to the kind of experiment: FACS, CHO-HER4.
In test [9] the target is T4, human HER4. Kind of test: FACS CHO-HER4, 667 nM.
Test [10] has as its target T3, hHER3 ECD (human HER3 extracellular …). Kind of test: ELISA, coated hHER3-ECD.
Test [11] addresses T1, hHER3 full length. Kind of test: cell-based or functional assay. This is another data set of the same source.
Test [12] addresses T5, human HER2 (human, UniProt P04626 23-1255).
T5 construct: also called hHER2
As to the kind of experiment: FACS CHO-HER2, 222 nM.

For test [13], the target named is T1, hHER3 full length. As to the kind of experiment: FACS, 400 nM, competitor 21B02-biotin.
The target in test [14] is T1, hHER3 full length. As to the kind of experiment: FACS, 400 nM, competitor 04C07-biotin.
The target in test [15] is T1, hHER3 full length. As to the kind of experiment: cell-based or functional assay. The source holds these as a separate data set.
Test [16] concerns the target T1, hHER3 full length. Kind of test: FACS competition with HRG1-β1-EGF, CHO-HER3.
Test [17] deals with T6, human HER1 (human, UniProt P00533 25-1210).
T6 construct: also called EGFR; ErbB1
Kind of test: FACS CHO-HER1, 667 nM.

The target in test [18] is T5, human HER2. As to the kind of experiment: FACS, CHO-HER2.
Test [19] addresses T6, human HER1. Kind of test: FACS CHO-HER1, 222 nM.
The target in test [20] is T4, human HER4. As to the kind of experiment: FACS CHO-HER4, 2000 nM.
Test [21] concerns the target T5, human HER2. As to the kind of experiment: FACS CHO-HER2, 2000 nM.
Test [22] addresses T5, human HER2. Kind of test: FACS CHO-HER2, 667 nM.
The target in test [23] is T6, human HER1. As to the kind of experiment: FACS, CHO-HER1.
For test [24], the target named is T1, hHER3 full length. Kind of test: FACS, 400 nM, competitor 18E08-biotin.
Test [25] concerns the target T4, human HER4. As to the kind of experiment: FACS CHO-HER4, 222 nM.
Test [26] has as its target T6, human HER1. Kind of test: FACS CHO-HER1, 2000 nM.
For test [27], the target named is T7, cHER3ECD (Maccaca fascicularis HER3 extracellular domain) (Macaca fascicularis, UniProt P21860 20-643 (human entry)).
T7 construct: also called cyno HER3ECD; cyno HER3-ECD
T7 chain: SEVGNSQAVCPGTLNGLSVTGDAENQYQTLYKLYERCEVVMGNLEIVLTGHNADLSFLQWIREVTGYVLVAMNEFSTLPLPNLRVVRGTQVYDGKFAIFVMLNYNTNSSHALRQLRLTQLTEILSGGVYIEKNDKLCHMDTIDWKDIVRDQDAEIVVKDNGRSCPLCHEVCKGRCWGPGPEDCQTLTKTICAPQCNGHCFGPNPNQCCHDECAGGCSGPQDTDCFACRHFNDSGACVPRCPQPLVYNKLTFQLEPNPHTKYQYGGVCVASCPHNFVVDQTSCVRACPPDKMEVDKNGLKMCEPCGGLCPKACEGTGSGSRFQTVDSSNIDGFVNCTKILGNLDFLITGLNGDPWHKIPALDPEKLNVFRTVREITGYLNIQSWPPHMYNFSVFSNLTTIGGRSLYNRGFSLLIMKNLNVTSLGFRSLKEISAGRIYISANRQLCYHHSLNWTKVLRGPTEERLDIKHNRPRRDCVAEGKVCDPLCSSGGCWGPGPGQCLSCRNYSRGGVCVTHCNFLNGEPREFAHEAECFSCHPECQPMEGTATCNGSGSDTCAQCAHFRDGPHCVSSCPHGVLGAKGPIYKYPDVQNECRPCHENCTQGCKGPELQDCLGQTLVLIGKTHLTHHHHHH
As to the kind of experiment: ELISA, coated cHER3-ECD.

For test [28], the target named is T8, Chimeric chicken Her3-human domain 1 (AA1-206 human, AA207-642 chicken) (chicken/human chimera).
T8 construct: Transmembrane and extracellular regions, on HEK293 cells
T8 chain: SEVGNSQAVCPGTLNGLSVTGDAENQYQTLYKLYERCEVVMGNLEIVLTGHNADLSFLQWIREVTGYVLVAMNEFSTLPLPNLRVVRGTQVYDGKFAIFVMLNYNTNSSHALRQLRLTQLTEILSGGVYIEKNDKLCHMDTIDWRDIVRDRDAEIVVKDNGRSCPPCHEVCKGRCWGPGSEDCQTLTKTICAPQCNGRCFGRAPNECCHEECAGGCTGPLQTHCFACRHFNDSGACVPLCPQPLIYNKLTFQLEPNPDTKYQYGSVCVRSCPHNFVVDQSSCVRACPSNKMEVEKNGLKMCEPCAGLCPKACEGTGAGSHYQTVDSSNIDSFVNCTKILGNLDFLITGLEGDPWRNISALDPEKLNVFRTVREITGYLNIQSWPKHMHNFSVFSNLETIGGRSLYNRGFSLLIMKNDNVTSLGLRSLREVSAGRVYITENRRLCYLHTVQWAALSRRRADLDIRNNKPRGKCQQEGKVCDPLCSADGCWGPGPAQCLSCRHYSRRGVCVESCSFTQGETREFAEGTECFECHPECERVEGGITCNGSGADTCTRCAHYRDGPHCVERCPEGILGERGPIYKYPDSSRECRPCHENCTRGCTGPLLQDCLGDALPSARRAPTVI
Kind of test: FACS, HEK293 with chimeric HER3.

In test [29] the target is T1, hHER3 full length. Kind of test: FACS, 400 nM, competitor 17C08-biotin.

Read-outs that look alike come from different tables or passages of the source.

T4 sequence (Q15303 26-1308 limits assumed): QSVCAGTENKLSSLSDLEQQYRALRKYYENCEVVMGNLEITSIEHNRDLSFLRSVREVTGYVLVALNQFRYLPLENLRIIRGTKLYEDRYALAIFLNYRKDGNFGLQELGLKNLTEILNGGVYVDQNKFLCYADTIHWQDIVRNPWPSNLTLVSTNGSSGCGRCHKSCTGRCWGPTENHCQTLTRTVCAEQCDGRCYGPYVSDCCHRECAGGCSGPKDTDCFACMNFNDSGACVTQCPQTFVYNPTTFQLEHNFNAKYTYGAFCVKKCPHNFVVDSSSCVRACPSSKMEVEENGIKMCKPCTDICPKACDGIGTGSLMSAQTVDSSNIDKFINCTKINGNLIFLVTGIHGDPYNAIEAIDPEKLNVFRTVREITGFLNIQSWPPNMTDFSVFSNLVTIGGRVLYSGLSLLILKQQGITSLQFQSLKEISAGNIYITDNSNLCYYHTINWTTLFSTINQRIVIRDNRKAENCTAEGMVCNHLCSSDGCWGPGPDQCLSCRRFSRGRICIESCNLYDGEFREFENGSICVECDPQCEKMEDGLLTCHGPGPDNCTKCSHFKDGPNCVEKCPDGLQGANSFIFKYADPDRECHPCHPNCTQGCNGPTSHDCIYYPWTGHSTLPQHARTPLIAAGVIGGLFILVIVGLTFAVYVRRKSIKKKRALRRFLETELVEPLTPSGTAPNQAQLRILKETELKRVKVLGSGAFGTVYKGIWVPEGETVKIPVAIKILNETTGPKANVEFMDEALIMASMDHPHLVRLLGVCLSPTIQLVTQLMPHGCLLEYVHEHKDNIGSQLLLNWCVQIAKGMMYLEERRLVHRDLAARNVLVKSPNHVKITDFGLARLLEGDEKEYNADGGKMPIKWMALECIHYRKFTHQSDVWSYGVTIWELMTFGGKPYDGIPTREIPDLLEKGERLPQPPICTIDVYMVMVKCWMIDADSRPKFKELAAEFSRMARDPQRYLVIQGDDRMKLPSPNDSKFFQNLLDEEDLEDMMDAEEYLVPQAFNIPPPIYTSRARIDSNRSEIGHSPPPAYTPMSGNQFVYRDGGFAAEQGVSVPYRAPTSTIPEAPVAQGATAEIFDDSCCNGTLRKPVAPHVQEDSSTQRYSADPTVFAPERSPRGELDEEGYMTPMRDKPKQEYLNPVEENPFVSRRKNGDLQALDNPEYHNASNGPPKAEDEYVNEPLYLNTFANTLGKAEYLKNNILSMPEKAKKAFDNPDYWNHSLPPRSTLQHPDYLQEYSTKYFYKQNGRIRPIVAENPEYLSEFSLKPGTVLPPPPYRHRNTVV

B1: HER3MS00130 (VHH)
VHH: EVQLVESGGGLVQPGGSLRLSCAASGFTFSSYPMSWVRQAPGKGPAWVSTVSPGGITTSYADSVKGRFTISRDNSKNTLYLQMNSLRPEDTAVYYCLRDLGNRGQGTLVTVSS
notes: 04C07 basic + N101G
In the case of B1, the “IC50 pHER3, HRG1-β1 stimulated MCF7” value with hHER3 full length [1] amounted to 9.38e-09 M. Also, the IC50 in test [2] is 0.88 nM.

B2: HER3MS00131 (VHH)
VHH: EVQLVESGGGLVQPGGSLRLSCAASGFTFSSYPMSWVRQAPGKGPEWVSTVSPGGITTSYADSVKGRFTISRDNSKNTLYLQMNSLRPEDTAVYYCLRDLSNRGQGTLVTVSS
notes: 04C07 basic + A46E + N101S
As to B2, the “IC50 pHER3, HRG1-β1 stimulated MCF7” value with hHER3 full length [1] worked out at 2.26e-07 M. In test [2], this molecule yielded an IC50 of 5.8 nM.

B3: HER3MS00132 (VHH)
VHH: EVQLVESGGGLVQPGGSLRLSCAASGFTFSSYPMSWVRQAPGKGPAWVSTVSPGGITTSYADSVKGRFTISRDNSKNTLYLQMNSLRPEDTAVYYCLRDLSNRGQGTLVTVSS
notes: 04C07 basic + N101S
As for B3, the “IC50 pHER3, HRG1-β1 stimulated MCF7” value in the test with hHER3 full length [1] was 1.31e-08 M. For the same molecule, the IC50 in test [2] is 1 nM.

B4: HER3MS00076 (VHH)
VHH: EVQLVESGGGLVQPGGSLRLSCAASGSIGGLNAMAWYRQAPGKERELVAGIFGVGSTRYADSVKGRFTISRDISKNTVFLQMNSLRSEDTAVYYCRMSSVTRGSSDYWGQGTLVTVSS
notes: 17B05 + A74S, N83R, Q108L; also called HER3MS0076; 17B05 basic variant
Turning to B4, the IC50 in test [3] worked out at 0.788 nM. Further, the koff in test [4] was 0.00017 s⁻¹.

B5: HER3MS00083 (VHH)
VHH: EVQLVESGGGLVQPGGSLRLSCAASGSIGGLNAMAWYRQAPGKERELVAGIFGVGSTRYADSVKGRFTISRDNSKNTVYLQMNSLRSEDTAVYYCAMSSVTRGSSDYWGQGTLVTVSS
notes: also called HER3MS0083
In the case of B5, the IC50 in test [3] came out at 4.95 nM. The koff in test [4] was determined as 0.00084 s⁻¹.

B6: HER3MS00085 (VHH)
VHH: EVQLVESGGGLVQPGGSLRLSCAASGSIGGLNAMAWYRQAPGKERELVAGIFGVGSTRYADSVKGRFTISRDISKNTVFLQMNSLRAEDTAVYYCRMSSVTRGSSDYWGQGTLVTVSS
notes: 17B05 basic + S84A; also called HER3MS0085
In [3], B6 displayed a concentration for half-maximal inhibition (IC50) of 0.76 to 0.94 nM. For the same molecule, in test [4], the dissociation rate constant (koff) came out at 0.00019 s⁻¹.

B7: HER3MS00084 (VHH)
VHH: EVQLVESGGGLVQPGGSLRLSCAASGSIGGLNAMAWYRQAPGKERELVAGIFGVGSTRYADSVKGRFTISRDISKNTVFLQMNSLRPEDTAVYYCRMSSVTRGSSDYWGQGTLVTVSS
notes: 17B05 basic + S84P; also called HER3MS0084
For the molecule B7, in test [3], the IC50 worked out at 0.94 nM. For the same molecule, in test [4], the koff was determined as 0.00018 s⁻¹.

B8: HER3MS00080 (VHH)
VHH: EVQLVESGGGLVQPGGSLRLSCAASGSIGGLNAMAWYRQAPGKERELVAGIFGVGSTRYADSVKGRFTISRDNSKNTVYLQMNSLRSEDTAVYYCRMSSVTRGSSDYWGQGTLVTVSS
notes: 17B05 basic + I73N + F79Y; also called HER3MS0080
B8 displayed an IC50 in [3] of 0.731 nM. In [4], the koff worked out at 0.00018 s⁻¹.

B9: 18F05 (VHH)
VHH: EVQLVESGGGLVQPGGSLRLSCVASGFTFSSYWMYWVRQAPGKGVEWVSAISPGGVERYTDSVKGRFTISRDNAKNTLYLQMNSLKSEDTAMYYCARLTSFATPESQGTQVTVSS
notes: also called 18F5
Regarding B9, the “% competition” value with hHER3 full length [5] was determined as 15%; in the test with hHER3 full length [6], 0%; in the test with hHER3 full length [13], 0%; with hHER3 full length [14] it was 100%; with hHER3 full length [24] it was 0%; in the test with hHER3 full length [29] it was 0%. This molecule registered an equilibrium dissociation constant (Kd) in test [7] of 0.24 nM. The kon in test [7] was 427000 M⁻¹ s⁻¹. The binding result with human HER4 [8] is listed as “no binding (tested: 2000 nM)”; with human HER2 [18] it was “no binding (tested: 2000 nM)”; with human HER1 [23] it was “no binding (tested: 2000 nM)”; in test [28] it was “binds”. Moreover, the MCF was 149 in the test with human HER4 [9]; 436 with human HER2 [12]; 60 in the test with human HER1 [17]; 154 with human HER1 [19]; 120 with human HER4 [20]; 256 in the test with human HER2 [21]. Also, the figures for the MCF with human HER2 [22], in the test with human HER4 [25] and with human HER1 [26] were 347, 149 and 133, respectively. In addition, the EC50 in test [10] and in test [27] was 0.29 nM throughout. Further, the “IC50, HRG1-β1 induced pAkt, MCF-7” value in the test with hHER3 full length [11] worked out at 8.04e-09 M. Further, the “IC50, HRG1-β1 induced pERK1/2, MCF-7” value with hHER3 full length [11] came to 8.98e-08 M. Moreover, the “IC50, HRG1-β1 induced pHER3, MCF-7” value in the test with hHER3 full length [15] is 1.53e-09 M. The “IC50, HRG1-β1 induced pHER3, MDA-MB468” value with hHER3 full length [15] worked out at 1.8e-08 M. The IC50 in the test with hHER3 full length [16] is 20.1 nM.
